From publication PMC5388505, “Interferon-inducible ribonuclease ISG20 inhibits hepatitis B virus replication through directly binding to the epsilon stem-loop structure of viral RNA”
Changes are numbered by the printed parent chain.

Experiments:
ISG20 (wild type) [1] = target: T1, ISG20 (wild type) (UniProt Q96AZ6 1-181); test: EMSA; no Mn2+; dose-dependent; supershift with anti-His; competed by 10-40x cold epsilon; ISG20 EMSA: 20 mM HEPES, 100 mM KCl, 1 mM DTT, 0.5 mg/ml BSA, 10% glycerol, 0.05 ug/ul poly[dI-dC], 30 C 30 min, 100 ng RNA, pH not stated; Pol EMSA: 20 mM Tris pH 7.5, 2 mM MgCl2, 15 mM NaCl, 20 mM KCl, 4 mM DTT, yeast tRNA, 30 C 1 h; settings: protein: recombinant; label: 5'-32P; stem-loop with bulge and apical loop
ISG20 D94G = ISG20 D94G (UniProt Q96AZ6 1-181, D94G); test: EMSA; no Mn2+; complex with altered mobility; ISG20 EMSA: 20 mM HEPES, 100 mM KCl, 1 mM DTT, 0.5 mg/ml BSA, 10% glycerol, 0.05 ug/ul poly[dI-dC], 30 C 30 min, 100 ng RNA, pH not stated; Pol EMSA: 20 mM Tris pH 7.5, 2 mM MgCl2, 15 mM NaCl, 20 mM KCl, 4 mM DTT, yeast tRNA, 30 C 1 h; settings: protein: recombinant; tags: 6xHis (pRSET A); label: 5'-32P; stem-loop with bulge and apical loop
ISG20 dExoII = ISG20 dExoII (UniProt Q96AZ6 1-181, del86-101); test: EMSA; no Mn2+; binding not reduced, even increased vs wild type; ISG20 EMSA: 20 mM HEPES, 100 mM KCl, 1 mM DTT, 0.5 mg/ml BSA, 10% glycerol, 0.05 ug/ul poly[dI-dC], 30 C 30 min, 100 ng RNA, pH not stated; Pol EMSA: 20 mM Tris pH 7.5, 2 mM MgCl2, 15 mM NaCl, 20 mM KCl, 4 mM DTT, yeast tRNA, 30 C 1 h; settings: protein: recombinant; tags: 6xHis (pRSET A); label: 5'-32P; stem-loop with bulge and apical loop
ISG20 dExoI = ISG20 dExoI (UniProt Q96AZ6 1-181, del7-16); test: as above; settings: protein: recombinant; tags: 6xHis (pRSET A); label: 5'-32P; stem-loop with bulge and apical loop
ISG20 dExoIII = ISG20 dExoIII (UniProt Q96AZ6 1-181, del147-157); test: EMSA; no Mn2+; binding completely lost; ISG20 EMSA: 20 mM HEPES, 100 mM KCl, 1 mM DTT, 0.5 mg/ml BSA, 10% glycerol, 0.05 ug/ul poly[dI-dC], 30 C 30 min, 100 ng RNA, pH not stated; Pol EMSA: 20 mM Tris pH 7.5, 2 mM MgCl2, 15 mM NaCl, 20 mM KCl, 4 mM DTT, yeast tRNA, 30 C 1 h; settings: protein: recombinant; tags: 6xHis (pRSET A); label: 5'-32P; stem-loop with bulge and apical loop
ISG20 (wild type) [2] = target: T1, ISG20 (wild type); test: EMSA; no Mn2+; ISG20 EMSA: 20 mM HEPES, 100 mM KCl, 1 mM DTT, 0.5 mg/ml BSA, 10% glycerol, 0.05 ug/ul poly[dI-dC], 30 C 30 min, 100 ng RNA, pH not stated; Pol EMSA: 20 mM Tris pH 7.5, 2 mM MgCl2, 15 mM NaCl, 20 mM KCl, 4 mM DTT, yeast tRNA, 30 C 1 h; settings: protein: recombinant; label: 5'-32P; hairpin
ISG20 (wild type) [3] = target: T1, ISG20 (wild type); test: EMSA; no Mn2+; bottom 4 bp stated indispensable for binding; ISG20 EMSA: 20 mM HEPES, 100 mM KCl, 1 mM DTT, 0.5 mg/ml BSA, 10% glycerol, 0.05 ug/ul poly[dI-dC], 30 C 30 min, 100 ng RNA, pH not stated; Pol EMSA: 20 mM Tris pH 7.5, 2 mM MgCl2, 15 mM NaCl, 20 mM KCl, 4 mM DTT, yeast tRNA, 30 C 1 h; settings: protein: recombinant; label: 5'-32P; hairpin

B1: HBV epsilon full length (FL) (structured_RNA)
RNA: CUUGUUCAUGUCCUACUGUUCAAGCCUCCAAGCUGUGCCUUGGGUGGCUUUGGGGCAUGGACAUC
- binding result (ISG20 (wild type) [1]): binds
- binding result (ISG20 D94G): binds
- binding result (ISG20 dExoII): binds
- binding result (ISG20 dExoI): binds
- binding result (ISG20 dExoIII): no binding

B2: Upper stem + loop (US+L) (structured_RNA)
RNA: UCAAGCCUCCAAGCUGUGCCUUGGGUGGCUUUG
- binding result (ISG20 (wild type) [2]): no binding

B3: Lower stem d4bp + bulge (LSd4+B) (structured_RNA)
RNA: CAUGUCCUACUGUUCUGGGGCAUG
- binding result (ISG20 (wild type) [3]): no binding

B4: Lower stem + bulge (LS+B) (structured_RNA)
RNA: CUUGUUCAUGUCCUACUGUUCUGGGGCAUGGACAUC
- binding result (ISG20 (wild type) [2]): binds

B5: Lower stem + bulge mutant (LS+Bm) (structured_RNA)
RNA: B4 RNA with G18A, U19A, U20A, C21A
- binding result (ISG20 (wild type) [2]): binds
